For test [1], the target named is T1, human αvβ3 integrin ITGAVB3 (human, UniProt P06756 31-992; P05106 27-718, limits assumed).
T1 construct: Recombinant heterodimer used as immunogen, ELISA coating and SPR ligand; also called A5B3; A5b3
In words: ELISA of soluble VHH, induced at 30 C; coating not given.

In test [2] the target is T1, human αvβ3 integrin ITGAVB3. In words: ELISA of soluble VHH (TG1 lysate), induced at 37 C, coated ITGAVB3. (An ELISA detects its analyte on a solid surface through an enzyme-linked reagent.)
Test [3] has the same target. Description: ELISA of soluble VHH (TG1 lysate), induced at 30 C, coated ITGAVB3.
The target is the same in test [4]. In words: phage ELISA, coated ITGAVB3, anti-M13-HRP, 490 nm. Here is the method:
Further, in order to perform phage ELISA, 2.5 μg/mL to […] of a target protein and a control protein were coated at 4 degrees C. using a coating buffer, and the wells were washed 3 times with 200 μL washing buffer per well. The wells were blocked with 200 μL PBS-M for two hours at room temperature. The blocking buffer was removed and the plate was washed 6 times with the washing solution. Thereafter, 100 μL of phage solution was added to the washing buffer per well and incubation was executed at room temperature for 1 to 2 hours. Then, washing was performed 6 times with washing buffer. HRP-binding anti-M13 antibody (GE healthcare) was diluted with 1:5,000 blocking buffer. 100 μL of diluted conjugate was added onto each well, and incubation was performed at room temperature for 1 hour, and washing was carried out 6 times with washing buffer. The HRP substrate solution was prepared as follows: A stock solution of OPD was prepared by dissolving 22 mg OPD (Sigma) in 100 mL of […] sodium citrate (pH 4.0), and 36 μL 30% H₂O₂ was added to 21 mL of OPL stock solution immediately before the detection step. 100 μL of substrate solution was added to each well and incubation was performed for 30 minutes at room temperature. Plates were analyzed using a micro plate reader set at 490 nm.

Test [5] has the same target. Description: ELISA of soluble VHH, induced at 37 C; coating not given.

T1 sequence (P06756 31-992 limits assumed, chain 1 of 2): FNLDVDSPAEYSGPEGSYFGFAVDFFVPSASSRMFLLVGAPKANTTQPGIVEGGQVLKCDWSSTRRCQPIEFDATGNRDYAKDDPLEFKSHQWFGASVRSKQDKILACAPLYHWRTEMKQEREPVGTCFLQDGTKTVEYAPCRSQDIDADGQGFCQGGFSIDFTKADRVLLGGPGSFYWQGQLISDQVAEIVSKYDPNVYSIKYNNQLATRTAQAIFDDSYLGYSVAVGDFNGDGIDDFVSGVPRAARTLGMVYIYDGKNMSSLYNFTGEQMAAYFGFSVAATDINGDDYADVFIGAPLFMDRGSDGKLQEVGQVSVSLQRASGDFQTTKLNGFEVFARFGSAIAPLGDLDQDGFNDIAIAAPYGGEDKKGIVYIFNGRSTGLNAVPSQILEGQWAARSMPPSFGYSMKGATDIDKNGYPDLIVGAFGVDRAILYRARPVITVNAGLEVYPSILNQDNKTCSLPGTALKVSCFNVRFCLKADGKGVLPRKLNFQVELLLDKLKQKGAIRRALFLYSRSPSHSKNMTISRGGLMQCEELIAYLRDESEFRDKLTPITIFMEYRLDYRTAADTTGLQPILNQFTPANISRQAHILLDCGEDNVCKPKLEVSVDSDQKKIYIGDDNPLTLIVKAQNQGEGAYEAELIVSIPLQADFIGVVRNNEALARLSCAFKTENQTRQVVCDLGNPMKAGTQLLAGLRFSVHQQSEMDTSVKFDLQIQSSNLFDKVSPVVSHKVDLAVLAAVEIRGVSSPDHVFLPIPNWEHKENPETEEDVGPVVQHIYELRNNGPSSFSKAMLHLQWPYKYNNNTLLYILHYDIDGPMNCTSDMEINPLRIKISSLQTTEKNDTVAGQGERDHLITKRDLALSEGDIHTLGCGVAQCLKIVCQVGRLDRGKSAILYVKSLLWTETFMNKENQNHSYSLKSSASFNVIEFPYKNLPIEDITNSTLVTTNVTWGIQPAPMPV
T1 sequence (P05106 27-718 limits assumed, chain 2 of 2): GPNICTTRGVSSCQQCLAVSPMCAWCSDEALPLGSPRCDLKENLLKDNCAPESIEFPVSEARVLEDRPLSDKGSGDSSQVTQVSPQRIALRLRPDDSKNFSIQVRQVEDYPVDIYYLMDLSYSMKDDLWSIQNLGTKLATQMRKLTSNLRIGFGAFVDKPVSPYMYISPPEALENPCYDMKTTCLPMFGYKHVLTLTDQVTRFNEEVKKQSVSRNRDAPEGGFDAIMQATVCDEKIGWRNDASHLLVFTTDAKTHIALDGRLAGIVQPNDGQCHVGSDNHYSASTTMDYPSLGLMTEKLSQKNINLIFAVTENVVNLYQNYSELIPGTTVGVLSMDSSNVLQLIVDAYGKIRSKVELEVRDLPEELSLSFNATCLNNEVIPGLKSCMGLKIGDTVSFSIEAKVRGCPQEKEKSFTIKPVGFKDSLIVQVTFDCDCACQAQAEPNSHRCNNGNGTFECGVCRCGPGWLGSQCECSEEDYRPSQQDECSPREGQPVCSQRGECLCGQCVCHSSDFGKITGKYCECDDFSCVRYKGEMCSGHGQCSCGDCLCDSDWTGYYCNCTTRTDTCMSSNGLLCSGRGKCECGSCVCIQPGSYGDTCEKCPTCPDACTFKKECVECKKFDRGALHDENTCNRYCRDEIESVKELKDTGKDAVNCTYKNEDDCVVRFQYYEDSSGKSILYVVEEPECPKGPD

B1: VHH-12 (VHH)
VHH: EVQLVESGGGSVQPGESLRLSCVASGYTVSSSCMAWFRQAPGKEREVVATIVVTSDTTSTFYADSVKGRFTISPDNAKNTLNLQMNSLEPSDTAMYYCAADRKWNVCSRGYRYTPNWANQFTFWGQGTQVTVSS
notes: also called clone 12
Regarding B1, the OD490 in test [1] came to 1.84; in test [2], 1.93; in test [3] it was 1.87; in test [4], 2.06; in test [5], 1.23.

B2: VHH-13 (VHH)
VHH: HVQLVESGGGSVQPGESLRLSCVASGYTVSSSCMAWFRQAPGKEREVVATIVVTSDTTSTFYADSVKGRFTISPDNAKNTLNLQMNSLEPSDTAMYYCAADRKWNVCSRGYRYTPNWANQFTFWGQGTQVTVSS
notes: also called clone 13
With B2, the OD490 in test [1] was found to be 0.161; in test [2], 2; in test [3], 2; in test [4], 2.01; in test [5], 0.187.

B3: VHH-17 (VHH)
VHH: DVQLVESGGGSVQPGESLRLSCVASGYTVSSSCMAWFRQAPGKEREVVATIVVTSDTTSTFYADSVKGRFTISPDNAKNTLNLQMNSLEPSDTAMYYCAADRKWNVCSRGYRYTPNWANQFTFWGQGTLVTVSS
notes: also called clone 17
Regarding B3, the OD490 in test [1] stood at 0.118; in test [2], 0.191; in test [3], 0.243; in test [4], 1.81; in test [5], 0.125.

B4: VHH-15 (VHH)
VHH: EVQLVESGGGSVQPGESLRLSCVASGYTVSSSCMAWFRQAPGKEREVVATIVVTSDTTSTFYADSVKGRFTISPDNAKNTLNLQMNSLEPPDTAMYYCAADRKWNVCSRGYRYTPNWANQFTFWGQGTQVTVSS
notes: also called clone 15
Take B4: the OD490 came out at 0.146 in test [1]; 0.132 in test [2]; 0.179 in test [3]; 1.97 in test [4]; 0.121 in test [5].

B5: VHH-11 (VHH)
VHH: DVQLVESGGGSVQPGESLRLSCVASGYTVSSSCMAWFRQAPGKEREVVATIVVTSDTTSTFYADSVKGRFTISPDNAKNTLNLQMNSLEPSDTAMYYCAADRKWNVCSRGYRYTPNWANQFTFWGQGTLVTVSS
notes: also called clone 11
B5: the OD490 in test [1] amounted to 0.148; in test [2] it was 0.64; in test [3], 0.334; in test [4], 2.07; in test [5], 0.119.

B6: VHH-16 (VHH)
VHH: DVQLVESGGGSVQPGGSLRLSCAASGYTVENSCMAWFRQAPGKEREVVATIVTNNATGTFYADSVKGRFTVSQDNAKNTLNLQMNSLEPEDTAMYYCAADTKWIVCSRGYRYTPNWANQFKYWGQGTQVTVSS
notes: also called clone 16
As for B6, the OD490 came out at 2.02 in test [1]; 1.68 in test [2]; 1.75 in test [3]; 2.07 in test [4]; 1.02 in test [5].

B7: VHH-20 (VHH)
VHH: DVQLVESGGGSVQPGGSLRLSCAASGYTVDNSCMAWFRQAPGKEREVVATIVTNNATSTFYADSVKGRFTVSHDNAKNTLNLQMNTLEPEDTAMYYCAADTKWIVCSRGYRYTPNWANHFNYWGQGTLVTVSS
notes: also called clone 20
In the case of B7, the OD490 in test [1] was determined as 0.108; in test [2] it was 0.144; in test [3] it was 0.129; in test [4], 1.98; in test [5], 0.111.

B8: VHH-22 (VHH)
VHH: QVQLVESGGGSVQAGGSLRLSCVVSGYTCSVYDMIWYRQPPGKEREFVSLINSNGRTTYADSVKGRFTISQNNAKNTVYLQMNSLKPEDTAMYYCHAACYSPSRLNYWGQGTLVTVSS
notes: also called clone 22
As for B8, the OD490 in test [1] turned out to be 1.21; in test [2] it was 1.98; in test [3], 1.98; in test [4] it was 2.04; in test [5], 0.386.

The values above are taken from US20220133913A1 (KOREA BASIC SCIENCE INSTITUTE, published 2022).
